Assay results from patent publication US20220389118A1 (Chugai, published 2022).
Positions count from the first letter of the chain named. In names and notes the source's numbering stands.

T1: human FcγRIIb extracellular domain with C-terminal His tag (human, UniProt P31994 43-217)
T1 construct: extracellular domain; not shown: His tag at the C terminus
T1 sequence (looked up): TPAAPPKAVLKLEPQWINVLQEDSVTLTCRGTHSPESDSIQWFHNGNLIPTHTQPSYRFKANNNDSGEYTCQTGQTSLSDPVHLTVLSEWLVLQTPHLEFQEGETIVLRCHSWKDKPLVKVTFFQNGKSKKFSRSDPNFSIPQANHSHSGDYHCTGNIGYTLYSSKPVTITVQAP

T2: human FcγRIIa type R (R131) extracellular domain with C-terminal His tag (human, UniProt P12318 34-217)
T2 construct: extracellular domain; also called FcγRIIaR; not shown: His tag at the C terminus
T2 sequence (looked up): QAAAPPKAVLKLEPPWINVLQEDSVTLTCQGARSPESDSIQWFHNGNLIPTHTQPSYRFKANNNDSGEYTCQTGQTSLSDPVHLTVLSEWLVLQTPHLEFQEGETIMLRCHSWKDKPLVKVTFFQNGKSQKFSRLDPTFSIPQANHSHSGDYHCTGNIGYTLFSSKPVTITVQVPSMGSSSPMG

T3: human FcγRIIa type R (allotype R131) extracellular domain with C-terminal His tag (human, UniProt P12318 34-217)
T3 construct: extracellular domain; also called FcγRIIaR; FcγRIIa R type; not shown: His tag at the C terminus
T3 sequence (looked up): T2 sequence (looked up)

T4: human FcγRIIb extracellular domain with C-terminal His tag (human, UniProt P31994 43-217)
T4 construct: extracellular domain; not shown: His tag at the C terminus
T4 sequence (looked up): T1 sequence (looked up)

T5: human FcγRIIa type H (allotype H131) extracellular domain with C-terminal His tag (human, UniProt P12318 34-217)
T5 construct: extracellular domain; also called FcγRIIaH; FcγRIIa H type; not shown: His tag at the C terminus
T5 sequence (looked up): T2 sequence (looked up) with R134H

B1: IL6R-BP230/IL6R-L (antibody, human IgG1, kappa)
heavy: QVQLQESGPGLVKPSETLSLTCAVSGHSISHDHAWSWVRQPPGEGLEWIGFISYSGITNYNPSLQGRVTISRDNSKNTLYLQMNSLRAEDTAVYYCARSLARTTAMDYWGEGTLVTVSSASTKGPSVFPLAPSSKSTSGGTAALGCLVKDYFPEPVTVSWNSGALTSGVHTFPAVLQSSGLYSLSSVVTVPSSSLGTQTYICNVNHKPSNTKVDKKVEPKSCDKTHTCPPCPAPDLLGDDSVFLFPPKPKDTLMISRTPEVTCVVVDVSDEDGEVKFNWYVDGVEVHNAKTKPREEQDNSTYRVVSVLTVLHQDWLNGKEYKCKVSNKALPRPIEKTISKAKGQPREPQVYTLPPSRDELTKNQVSLTCLVKGFYPSDIAVEWESNGQPENNYKTTPPVLDSDGSFFLYSKLTVDKSRWQQGNVFSCSVMHEALHNHYTQESLSLSP
light: not shown
notes: copies: 2 + 2
B2: IL6R-BP547/IL6R-L (antibody, human IgG1, kappa)
heavy: B1 heavy with K411R
light: not shown
notes: K409R introduced into IL6R-BP230; copies: 2 + 2
B3: IL6R-BP542/IL6R-L (antibody, human IgG1, kappa)
heavy: B1 heavy with D298F
light: not shown
notes: Y296F introduced into IL6R-BP230 (takes the place of Y296D); copies: 2 + 2
B4: IL6R-BP545/IL6R-L (antibody, human IgG1, kappa)
heavy: B1 heavy with D358E
light: not shown
notes: D356E introduced into IL6R-BP230; copies: 2 + 2
B5: Fv4-F1166 (antibody, IgG1)
heavy: QVQLQESGPGLVKPSETLSLTCAVSGHSISHDHAWSWVRQPPGEGLEWIGFISYSGITNYNPSLQGRVTISRDNSKNTLYLQMNSLRAEDTAVYYCARSLARTTAMDYWGEGTLVTVSSASTKGPSVFPLAPSSKSTSGGTAALGCLVKDYFPEPVTVSWNSGALTSGVHTFPAVLQSSGLYSLSSVVTVPSSSLGTQTYICNVNHKPSNTKVDKKVEPKSCDKTHTCPPCPAPELLGGPSVFLFPPKPKDTLYITREPEVTCVVVDVSHEDPEVKFNWYVDGVEVHNAKTKPREEQYNSTYRVVSVLTVLHQDWLNGKEYKCKVSNKALPAPIEKTISKAKGQPREPQVYTLPPSRDELTKNQVSLTCLVKGFYPSDIAVEWESNGQPENNYKTTPPVLDSDGSFFLYSKLTVDKSRWQQGNVFSCSVMHEALHNHYTRKELSLSP
light: DIQMTQSPSSLSASVGDSVTITCQASTDISSHLNWYQQKPGKAPELLIYYGSHLLSGVPSRFSGSGSGTDFTFTISSLEAEDAATYYCGQGNRLPYTFGQGTKVEIERTVAAPSVFIFPPSDEQLKSGTASVVCLLNNFYPREAKVQWKVDNALQSGNSQESVTEQDSKDSTYSLSSTLTLSKADYEKHKVYACEVTHQGLSSPVTKSFNRGEC
notes: copies: 2 + 2
B6: Fv4-F1167 (antibody, human IgG1, kappa)
heavy: B5 heavy with S426N, R440Q, E442S
light: B5 light
notes: copies: 2 + 2
B7: Fv4-F1171 (antibody, human IgG1, kappa)
heavy: B5 heavy with Y254M, T256S, E258T, S426N, M430L, N436S, R440Q, E442S
light: B5 light
notes: copies: 2 + 2
B8: Fv4-F1172 (antibody, IgG1)
heavy: B5 heavy with Y254M, T256S, E258T, N436H
light: B5 light
notes: copies: 2 + 2
B9: Fv4-F1173 (antibody, human IgG1, kappa)
heavy: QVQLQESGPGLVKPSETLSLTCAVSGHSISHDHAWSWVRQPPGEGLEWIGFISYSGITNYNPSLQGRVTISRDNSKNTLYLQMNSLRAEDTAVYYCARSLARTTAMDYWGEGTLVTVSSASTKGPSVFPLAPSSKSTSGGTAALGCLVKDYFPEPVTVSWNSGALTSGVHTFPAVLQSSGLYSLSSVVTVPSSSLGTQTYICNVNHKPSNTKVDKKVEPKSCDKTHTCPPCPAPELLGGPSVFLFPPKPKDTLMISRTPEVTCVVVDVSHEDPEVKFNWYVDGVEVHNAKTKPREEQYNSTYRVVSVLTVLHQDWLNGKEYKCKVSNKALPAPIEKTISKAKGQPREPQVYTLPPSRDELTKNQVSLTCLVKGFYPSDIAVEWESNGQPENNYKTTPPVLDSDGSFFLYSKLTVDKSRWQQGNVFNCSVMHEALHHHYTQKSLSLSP
light: B5 light
notes: copies: 2 + 2
B10: Fv4-LS (antibody, human IgG1, kappa)
heavy: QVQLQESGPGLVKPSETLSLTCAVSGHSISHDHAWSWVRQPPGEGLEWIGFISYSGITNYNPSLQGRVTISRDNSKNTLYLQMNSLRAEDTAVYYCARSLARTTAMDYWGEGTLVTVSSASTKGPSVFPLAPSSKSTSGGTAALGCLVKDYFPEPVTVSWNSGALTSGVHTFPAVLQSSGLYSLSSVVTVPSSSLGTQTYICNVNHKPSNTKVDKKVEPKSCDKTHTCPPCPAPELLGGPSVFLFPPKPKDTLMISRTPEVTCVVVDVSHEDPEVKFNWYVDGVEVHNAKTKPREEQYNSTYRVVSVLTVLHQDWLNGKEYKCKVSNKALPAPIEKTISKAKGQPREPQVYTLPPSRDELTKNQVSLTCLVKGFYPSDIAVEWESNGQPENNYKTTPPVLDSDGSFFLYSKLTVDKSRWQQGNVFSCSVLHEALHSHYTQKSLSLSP
light: B5 light
notes: also called F22 (LS); F22; copies: 2 + 2
B11: Fv4-N434H (antibody, human IgG1, kappa)
heavy: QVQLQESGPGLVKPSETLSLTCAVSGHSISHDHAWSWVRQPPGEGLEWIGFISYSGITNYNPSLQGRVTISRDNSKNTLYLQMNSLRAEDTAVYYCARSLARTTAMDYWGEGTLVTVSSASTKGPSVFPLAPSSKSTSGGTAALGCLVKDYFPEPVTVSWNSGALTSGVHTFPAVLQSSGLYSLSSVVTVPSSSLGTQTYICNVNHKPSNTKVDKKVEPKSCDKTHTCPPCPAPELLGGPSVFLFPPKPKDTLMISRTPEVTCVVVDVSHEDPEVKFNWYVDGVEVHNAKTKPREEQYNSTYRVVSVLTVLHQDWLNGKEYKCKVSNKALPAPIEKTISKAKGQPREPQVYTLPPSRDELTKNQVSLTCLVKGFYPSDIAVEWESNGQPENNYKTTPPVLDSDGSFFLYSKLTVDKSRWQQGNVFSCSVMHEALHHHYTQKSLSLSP
light: B5 light
notes: copies: 2 + 2
B12: Fv4-YTE (antibody, human IgG1, kappa)
heavy: B5 heavy with R440Q, E442S
light: B5 light
notes: copies: 2 + 2
B13: IL6R-BP184/IL6R-L (antibody, human IgG1, kappa)
heavy: B1 heavy with D239G, D270H, D298Y, R332K
light: not shown
notes: copies: 2 + 2
B14: IL6R-BP185/IL6R-L (antibody, human IgG1, kappa)
heavy: B1 heavy with L236Y, D270H, D298Y, K328A, R332K
light: not shown
notes: copies: 2 + 2
B15: IL6R-BP187/IL6R-L (antibody, human IgG1, kappa)
heavy: B1 heavy with D235E, L236Y, D239G, D270H, D298Y, K328A, R332K
light: not shown
notes: copies: 2 + 2
B16: IL6R-BP191/IL6R-L (antibody, human IgG1, kappa)
heavy: B1 heavy with D239G, D298Y, K328A, R332K
light: not shown
notes: copies: 2 + 2
B17: IL6R-BP192/IL6R-L (antibody, human IgG1, kappa)
heavy: B1 heavy with D239G, R332K
light: not shown
notes: copies: 2 + 2
B18: IL6R-BP195/IL6R-L (antibody, human IgG1, kappa)
heavy: B1 heavy with L236Y, K328A, R332K
light: not shown
notes: copies: 2 + 2
B19: IL6R-BP201/IL6R-L (antibody, human IgG1, kappa)
heavy: B1 heavy with D270H, D298Y
light: not shown
notes: copies: 2 + 2
B20: IL6R-BP203/IL6R-L (antibody, human IgG1, kappa)
heavy: B1 heavy with D235E, D270H, D298Y
light: not shown
notes: copies: 2 + 2
B21: IL6R-BP208/IL6R-L (antibody, human IgG1, kappa)
heavy: B1 heavy with D298Y
light: not shown
notes: copies: 2 + 2
B22: IL6R-BP200/IL6R-L (antibody, human IgG1, kappa)
heavy: B1 heavy with L236Y, D270H, D298Y, K328D
light: not shown
notes: copies: 2 + 2
B23: IL6R-BP206/IL6R-L (antibody, human IgG1, kappa)
heavy: B1 heavy with D239G, D270H, D298Y
light: not shown
notes: copies: 2 + 2
B24: IL6R-BP209/IL6R-L (antibody, human IgG1, kappa)
heavy: B1 heavy with D235E, D298Y, K328A
light: not shown
notes: copies: 2 + 2
B25: IL6R-BP189/IL6R-L (antibody, human IgG1, kappa)
heavy: B1 heavy with D235E, D298Y, K328A, R332K
light: not shown
notes: copies: 2 + 2
B26: IL6R-BP202/IL6R-L (antibody, human IgG1, kappa)
heavy: B1 heavy with D235E, D270H, D298Y, K328A
light: not shown
notes: copies: 2 + 2

Each binder was assayed against T6, human FcγRIa extracellular domain with C-terminal His tag (human, UniProt P12314 16-292) (assay: SPR (Biacore), antibody captured, FcγR analyte).
T6 construct: not shown: His tag at the C terminus
T6 sequence (P12314 16-292): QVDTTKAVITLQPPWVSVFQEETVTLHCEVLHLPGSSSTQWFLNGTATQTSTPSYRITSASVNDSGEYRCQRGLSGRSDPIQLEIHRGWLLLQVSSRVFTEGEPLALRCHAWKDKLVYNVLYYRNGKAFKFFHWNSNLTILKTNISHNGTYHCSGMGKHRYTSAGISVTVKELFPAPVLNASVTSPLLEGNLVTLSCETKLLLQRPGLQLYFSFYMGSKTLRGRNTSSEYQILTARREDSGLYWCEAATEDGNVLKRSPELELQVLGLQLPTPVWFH

Binder | Kd [nM]
B1 | 10
B2 | 12

The binders below were run against T1, human FcγRIIb extracellular domain with … (assay: SPR (Biacore), antibody captured, FcγR analyte).

Binder | Kd [nM]
B1 | 18
B3 | 20
B4 | 17
B2 | 19

The binders below were run against T2, human FcγRIIa type R (R131) … (assay: SPR (Biacore), antibody captured, FcγR analyte).

Binder | Kd [nM]
B4 | 570

Each binder was assayed against T7, human FcRn (human, UniProt P55899 24-297; P61769 21-119) (assay: FcRn binding affinity at pH 6.0; method not stated).
T7 construct: the construct is not described
T7 sequence (P55899 24-297 limits assumed, chain 1 of 2): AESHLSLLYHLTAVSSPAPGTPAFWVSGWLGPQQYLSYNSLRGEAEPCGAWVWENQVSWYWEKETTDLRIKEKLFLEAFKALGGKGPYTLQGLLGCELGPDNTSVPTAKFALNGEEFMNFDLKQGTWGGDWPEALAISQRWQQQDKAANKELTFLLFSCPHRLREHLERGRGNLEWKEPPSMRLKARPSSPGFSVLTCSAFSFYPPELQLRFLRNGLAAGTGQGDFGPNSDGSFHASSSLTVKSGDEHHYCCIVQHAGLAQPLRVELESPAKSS
T7 sequence (P61769 21-119 limits assumed, chain 2 of 2): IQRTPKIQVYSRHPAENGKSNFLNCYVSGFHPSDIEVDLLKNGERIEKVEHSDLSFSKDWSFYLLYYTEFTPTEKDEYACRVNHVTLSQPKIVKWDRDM

Binder | Kd [nM]
B5 | 210
B6 | 250
B7 | 240
B8 | 400
B9 | 530
B10 | 160
B11 | 430
B12 | 210

These binders were tested against T3, human FcγRIIa type R (allotype R131) … (assay: SPR (Biacore), antibody captured, FcγR analyte).

Binder | Kd [nM]
B13 | 2300
B14 | 880
B15 | 2800
B16 | 3000
B17 | 2600
B18 | 910
B19 | 840
B20 | 990
B21 | 850

What follows are binders tested against T4, human FcγRIIb extracellular domain with … (assay: SPR (Biacore), antibody captured, FcγR analyte).

Binder | Kd [nM]
B14 | 69
B18 | 50
B22 | 34
B19 | 40
B23 | 200
B24 | 51

The binders below were run against T8, human FcγRIa extracellular domain with C-terminal His tag (human, UniProt P12314 16-292) (assay: SPR (Biacore), antibody captured, FcγR analyte).
T8 construct: not shown: His tag at the C terminus
T8 sequence (P12314 16-292): as the sequence (P12314 16-292) above

Binder | Kd [nM]
B15 | 25
B25 | 42
B16 | 4
B17 | 6.6
B26 | 95
B20 | 180
B24 | 39

The binders below were run against T5, human FcγRIIa type H (allotype H131) … (assay: SPR (Biacore), antibody captured, FcγR analyte).

Binder | Kd [nM]
B13 | 30000
B18 | 10000
B26 | 9200
B21 | 8300
B24 | 10000

The binders below were run against T9, human FcγRIIIa type V (allotype V158) extracellular domain with C-terminal His tag (human, UniProt P08637 17-208) (assay: SPR (Biacore), antibody captured, FcγR analyte).
T9 construct: extracellular domain; also called FcγRIIIaV; FcγRIIIa V type; not shown: His tag at the C terminus
T9 sequence (P08637 17-208 F176V): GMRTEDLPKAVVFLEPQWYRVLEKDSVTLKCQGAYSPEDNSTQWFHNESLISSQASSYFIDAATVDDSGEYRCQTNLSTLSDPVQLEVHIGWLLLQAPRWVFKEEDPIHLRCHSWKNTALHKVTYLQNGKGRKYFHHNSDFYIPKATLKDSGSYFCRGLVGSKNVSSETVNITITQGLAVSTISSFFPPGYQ

Binder | Kd [nM]
B13 | 66000
B14 | 36000
B15 | 56000
B18 | 31000
B20 | 72000
B23 | 69000
B21 | 53000
B24 | 41000

These binders were tested against T7, human FcRn (assay: binding to FcRn at pH 6.0; method not stated).

Binder | Kd [nM]
B10 | 71
